# In US20120122125A1 (AbbVie / Abbott, published 2012):
# Numbering of substitutions follows the chain as printed.
# T1: Chagas FP3 recombinant antigen (Trypanosoma cruzi)
# T1 construct: also called T. cruzi antigen FP3; not shown: His6 tag at the amino end, from the pET vector
# T1 chain: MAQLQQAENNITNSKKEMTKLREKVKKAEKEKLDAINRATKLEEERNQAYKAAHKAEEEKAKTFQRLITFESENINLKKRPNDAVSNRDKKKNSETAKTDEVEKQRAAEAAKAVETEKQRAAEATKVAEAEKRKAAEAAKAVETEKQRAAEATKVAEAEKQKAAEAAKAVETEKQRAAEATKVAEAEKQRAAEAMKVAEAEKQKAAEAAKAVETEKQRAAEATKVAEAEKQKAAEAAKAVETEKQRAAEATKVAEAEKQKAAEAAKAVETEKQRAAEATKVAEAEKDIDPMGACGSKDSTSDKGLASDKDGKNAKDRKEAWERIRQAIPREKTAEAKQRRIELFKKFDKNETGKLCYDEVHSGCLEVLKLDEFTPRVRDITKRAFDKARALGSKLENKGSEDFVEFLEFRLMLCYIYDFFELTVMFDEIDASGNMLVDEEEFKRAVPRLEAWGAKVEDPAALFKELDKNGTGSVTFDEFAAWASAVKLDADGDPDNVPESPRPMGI
# T2: Chagas FP10 recombinant antigen (Trypanosoma cruzi)
# T2 construct: also called T. cruzi antigen FP10
# T2 chain: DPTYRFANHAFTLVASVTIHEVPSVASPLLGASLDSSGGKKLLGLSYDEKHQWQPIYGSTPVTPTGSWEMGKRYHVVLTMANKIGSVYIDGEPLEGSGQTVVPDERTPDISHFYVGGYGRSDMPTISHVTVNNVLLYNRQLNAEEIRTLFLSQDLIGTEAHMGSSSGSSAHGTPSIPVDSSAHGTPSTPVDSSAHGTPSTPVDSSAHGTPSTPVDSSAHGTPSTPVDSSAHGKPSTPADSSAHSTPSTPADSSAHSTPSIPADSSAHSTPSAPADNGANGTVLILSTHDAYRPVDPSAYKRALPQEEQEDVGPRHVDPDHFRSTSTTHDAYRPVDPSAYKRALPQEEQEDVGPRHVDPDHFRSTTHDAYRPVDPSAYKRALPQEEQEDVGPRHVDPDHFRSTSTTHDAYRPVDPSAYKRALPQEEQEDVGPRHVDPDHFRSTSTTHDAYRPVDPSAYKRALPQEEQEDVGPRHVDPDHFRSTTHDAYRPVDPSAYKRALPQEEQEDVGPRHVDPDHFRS
# T3: Chagas FRA antigen (Trypanosoma cruzi)
# T3 construct: also called FRA-domain; recombinant FRA antigen
# T3 chain: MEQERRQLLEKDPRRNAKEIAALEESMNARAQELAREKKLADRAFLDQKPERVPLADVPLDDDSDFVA
# T4: Pep2 antigen (Trypanosoma cruzi)
# T4 construct: The form of Pep2 coated in the anti-Pep2 microtiter EIA is not described; also called TcF Pep2 peptide
# T4 peptide: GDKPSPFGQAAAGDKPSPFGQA
# B1: recombinant chimeric (mouse-human) anti-Chagas monoclonal antibody 10-745-140 (FP10) (antibody, V domains shown)
# VH: QVQLQQPGAELVKPGASVKMSCKASGYTFTSYWVHWVKQRPGQGLEWIGVIDPSDSYTSYNQKFKGKATLTVDTSSSTAYMQLSSLTSEDSAVYYCTRHYDFDSWYFDVWGAGTTVTVSS
# VL: DVVMTQTPLSLPVSLGDQASISCRSSQSLVHSNGNTYLHWYLQKPGQSPKLLIYKVSNRFSGVPDRFSGSGSGTDFTLKISRVEAEDLGVYFCSQSTHVPPTFGGGTKLEIK
# notes: Mouse VH and VL of hybridoma HBFP10 joined to human IgG1 (z, non-a) and human kappa constant regions; the summary and the claims swap them; also called Chimeric Chagas Ab 10-745-140; Chagas FP10 10-745-3796
# B2: recombinant chimeric (mouse-human) anti-Chagas monoclonal antibody 12-392-150 (FP3) (antibody, V domains shown)
# VH: DVQLVESGGGLVQPGGSRKLSCAASGFTFSVFGMHWVRQAPEKGLEWVAYISSGSTIIYYADTVKGRFTISRDNPKNTLFLQMTGLRSEDTAMYYCARPLYYDYDDYAMDYWGQGTSVTVSS
# VL: YIVMSQSPSSLAVSAGEKVTMSCKSSQSLLNSRTRKNHLAWYQQKPGQSPKLLIYWASTRESGVPDRFTGSGSGTDFALTISSVQAEDLAVYFCKQSYNLYTFGAGTKLELK
# notes: Mouse VH and VL of hybridoma HBFP3 joined to human IgG1 (z, non-a) and human kappa constant regions; the summary and the claims swap them; also called Chimeric Chagas Ab 12-392-150; Chagas FP3 12-392-150CHO2580-104
# B3: murine anti-Chagas monoclonal antibody 8-367-171 (FRA) (antibody, V domains shown)
# VH: EVQLQQSGAELVKPGASVKLSCTASGFNIKDTYMHWVKQRPEQGLEWIGRIDPANGNTKYDPKFQGKATITTDTSSNTAYLQLSSLTSEDTAVYYCATSYYGNYVAYWGHGTLVTVSA
# VL: DIQMDQSPSSLSASLGDTITITCHASQNINVWLSWYQQKPGNIPKLLIYKASNLHTGVPSRFSGSGSGTGFTLTISSLQPEDIATYYCQQGQSYPLTFGSGRKLEIK
# notes: Mouse hybridoma mAb; captured by anti-mouse IgG
# B4: murine anti-Chagas monoclonal antibody 9-638-132 (Pep2 epitope in TcF and FP6) (antibody, V domains shown)
# VH: QVQLQQPGAELVRPGASVKLSCKASGYTFTSYWMNWVKLRPGQGLEWIGMIDPSDSETYYDQVFKDKATLTVDKSSSTAYMHLSSLTSEDSAVYYCARWITTDSYTMDYWGQGTSVTVSS
# VL: B2 VL with Y1D, K18Q, L30F, H38Y, A78T, F93Y, Y101L
# notes: Mouse hybridoma mAb; captured by anti-mouse IgG; also called Murine Chagas Ab 9-638-132; hybrid 9-638
# B5: murine anti-Chagas monoclonal antibody 10-745-140 (FP10) (antibody, V domains shown)
# VH: B1 VH
# VL: B1 VL
# notes: Mouse hybridoma mAb; captured by anti-mouse IgG; also called Murine Chagas Ab 10-745-140; Chagas 10-745-140
# B6: murine anti-Chagas monoclonal antibody 12-392-150 (FP3) (antibody, V domains shown)
# VH: B2 VH
# VL: B2 VL
# notes: Mouse hybridoma mAb; captured by anti-mouse IgG; also called Murine Chagas Ab 12-392-150; hybrid 12-392
# B7: recombinant chimeric (mouse-human) anti-Chagas monoclonal antibody 9-638-132 (Pep2 epitope in TcF and FP6) (antibody, V domains shown)
# VH: B4 VH
# VL: B2 VL with Y1D, K18Q, L30F, H38Y, A78T, F93Y, Y101L
# notes: Mouse VH and VL of hybridoma HBPep2 joined to human IgG1 (z, non-a) and human kappa constant regions; the summary and the claims swap them; also called Chimeric Chagas Ab 9-638-132; Chagas Pep2 9-638-1928
# Experiments:
# [1] = target: T1, Chagas FP3 recombinant antigen; test: SPR, BIAcore 2000; His6-tagged FP3 captured on anti-His4, chimeric antibody injected
# [2] = target: T2, Chagas FP10 recombinant antigen; test: SPR, BIAcore 2000; His6-tagged FP10 captured on anti-His4, chimeric antibody injected 0-300 nM
# [3] = target: T2, Chagas FP10 recombinant antigen; test: SPR, BIAcore 2000; His6-tagged FP10 captured on anti-His4, chimeric antibody injected
# [4] = target: T1, Chagas FP3 recombinant antigen; test: SPR, BIAcore 2000; His6-tagged FP3 captured on anti-His4, chimeric antibody injected 0-300 nM
# [5] = target: T3, Chagas FRA antigen; test: SPR, BIAcore 2000; murine mAb captured on rabbit anti-mouse IgG, FRA injected 0-200 nM
# [6] = target: T2, Chagas FP10 recombinant antigen; test: SPR, BIAcore 2000; murine mAb captured on rabbit anti-mouse IgG, FP10 injected
# [7] = target: Chagas recombinant antigen FP6 (Trypanosoma cruzi); test: SPR, BIAcore 2000; murine mAb captured on rabbit anti-mouse IgG, FP6 injected 0-200 nM
# [8] = target: T1, Chagas FP3 recombinant antigen; test: SPR, BIAcore 2000; murine mAb captured on rabbit anti-mouse IgG, FP3 injected
# [9] = target: T3, Chagas FRA antigen; test: SPR, BIAcore 2000; murine mAb captured on rabbit anti-mouse IgG, FRA injected
# [10] = target: Chagas TcF recombinant antigen (Trypanosoma cruzi); test: SPR, BIAcore 2000; murine mAb captured on rabbit anti-mouse IgG, TcF injected 0-200 nM
# [11] = target: T2, Chagas FP10 recombinant antigen; test: SPR, BIAcore 2000; murine mAb captured on rabbit anti-mouse IgG, FP10 injected 0-200 nM
# [12] = target: T1, Chagas FP3 recombinant antigen; test: SPR, BIAcore 2000; murine mAb captured on rabbit anti-mouse IgG, FP3 injected 0-200 nM
# [13] = target: Chagas TcF recombinant antigen (Trypanosoma cruzi); test: SPR, BIAcore 2000; chimeric antibody captured on goat anti-human IgG Fc, TcF injected 0-100 nM
# [14] = target: T4, Pep2 antigen; test: SPR, BIACORE; chimeric antibody from transient COS 7L expression; the antigen is not given
binder,measurement,setting,value
B1,binding result,[1],no binding (tested: 0 to 300 nM antibody)
same,Kd,[2],2.9 nM
same,koff,[2],0.00036 s⁻¹
same,kon,[2],120000 M⁻¹ s⁻¹
B2,binding result,[3],no binding (tested: 0 to 300 nM antibody)
same,Kd,[4],0.14 nM
same,koff,[4],0.00038 s⁻¹
same,kon,[4],2.7e+06 M⁻¹ s⁻¹
B3,Kd,[5],37 nM
same,koff,[5],0.13 s⁻¹
same,kon,[5],3.6e+06 M⁻¹ s⁻¹
same,binding result,[6],no binding (tested: 0 to 200 nM antigen)
same,Kd,[7],5.2 nM
same,koff,[7],0.0079 s⁻¹
same,kon,[7],1.5e+06 M⁻¹ s⁻¹
same,binding result,[8],no binding (tested: 0 to 200 nM antigen)
B4,binding result,[9],no binding (tested: 0 to 200 nM antigen)
same,Kd,[10],5.7 nM
same,koff,[10],0.012 s⁻¹
same,kon,[10],2.1e+06 M⁻¹ s⁻¹
same,binding result,[8],no binding (tested: 0 to 200 nM antigen)
B5,Kd,[11],1.9 nM
same,koff,[11],0.00022 s⁻¹
same,kon,[11],110000 M⁻¹ s⁻¹
B6,Kd,[12],0.08 nM
same,koff,[12],5e-05 s⁻¹
same,kon,[12],560000 M⁻¹ s⁻¹
same,binding result,[6],no binding (tested: 0 to 200 nM antigen)
same,binding result,[9],no binding (tested: 0 to 200 nM antigen)
B7,binding result,[3],no binding (tested: 0 to 300 nM antibody)
same,Kd,[13],4.1 nM
same,koff,[13],0.017 s⁻¹
same,kon,[13],4e+06 M⁻¹ s⁻¹
same,Kd,[14],~2.6 nM
same,binding result,[1],no binding (tested: 0 to 300 nM antibody)
